Experimental data published in US20220227830A1, “QD DOSING OF GIP RECEPTOR AGONIST PEPTIDE COMPOUNDS AND USES THEREOF” (Takeda Pharmaceutical Company Limited, priority 2020, published 2022).
Starred links: 1 amine or outer side, 2 acyl side, 3 side chain; linkers in the order of their positions; H or OH if unused. Non-standard residues stand in square brackets, D forms with d. Groups on a side chain read outwards from the residue. No end group written: not given here. *: point of attachment. 2OEGgEgE‑C15DA = 2OEGgEgE-C15 diacid linker-lipid on the Lys side chain, O=C(O)CCCCCCCCCCCCCC(=O)N[C@@H](CCC(=O)N[C@@H](CCC(=O)NCCOCCOCC(=O)NCCOCCOCC(=O)*)C(=O)O)C(=O)O; 2OEGgE‑C16DA = O=C(O)CCCCCCCCCCCCCCC(=O)N[C@@H](CCC(=O)NCCOCCOCC(=O)NCCOCCOCC(=O)*)C(=O)O; C15 diacid = O=C(O)CCCCCCCCCCCCCC(=O)*; γGlu = O=C(O)[C@H](CCC(=O)[*:2])N[*:1]; NMeY = CN[C@@H](Cc1ccc(O)cc1)C(=O)O; AEEA = NCCOCCOCC(=O)O; Aib = CC(C)(N)C(=O)O

B1: Compound 108 (peptide)
peptide: [NMeY][Aib]EGTFISDYSI[Aib]LDR[Aib]AQ[Aib]K(2OEGgEgE‑C15DA)FVNWLLAQR-NH2
modifications: N-terminus assumed
SMILES: CC[C@H](C)[C@H](NC(=O)[C@H](Cc1ccccc1)NC(=O)[C@@H](NC(=O)CNC(=O)[C@H](CCC(=O)O)NC(=O)C(C)(C)NC(=O)[C@H](Cc1ccc(O)cc1)NC)[C@@H](C)O)C(=O)N[C@@H](CO)C(=O)N[C@@H](CC(=O)O)C(=O)N[C@@H](Cc1ccc(O)cc1)C(=O)N[C@@H](CO)C(=O)N[C@H](C(=O)NC(C)(C)C(=O)N[C@@H](CC(C)C)C(=O)N[C@@H](CC(=O)O)C(=O)N[C@@H](CCCNC(=N)N)C(=O)NC(C)(C)C(=O)N[C@@H](C)C(=O)N[C@@H](CCC(N)=O)C(=O)NC(C)(C)C(=O)N[C@@H](CCCCNC(=O)COCCOCCNC(=O)COCCOCCNC(=O)CC[C@H](NC(=O)CC[C@H](NC(=O)CCCCCCCCCCCCCC(=O)O)C(=O)O)C(=O)O)C(=O)N[C@@H](Cc1ccccc1)C(=O)N[C@H](C(=O)N[C@@H](CC(N)=O)C(=O)N[C@@H](Cc1c[nH]c2ccccc12)C(=O)N[C@@H](CC(C)C)C(=O)N[C@@H](CC(C)C)C(=O)N[C@@H](C)C(=O)N[C@@H](CCC(N)=O)C(=O)N[C@@H](CCCNC(=N)N)C(N)=O)C(C)C)[C@@H](C)CC
B2: Compound 112 (peptide)
peptide: [NMeY][Aib]EGTFISDYSI[Aib]LDR[Aib]AQ[Aib]K([AEEA-γGlu-γGlu-γGlu-C15 diacid])FVNWLLAQK-NH2
modifications: N-terminus assumed
SMILES: CC[C@H](C)[C@H](NC(=O)[C@H](Cc1ccccc1)NC(=O)[C@@H](NC(=O)CNC(=O)[C@H](CCC(=O)O)NC(=O)C(C)(C)NC(=O)[C@H](Cc1ccc(O)cc1)NC)[C@@H](C)O)C(=O)N[C@@H](CO)C(=O)N[C@@H](CC(=O)O)C(=O)N[C@@H](Cc1ccc(O)cc1)C(=O)N[C@@H](CO)C(=O)N[C@H](C(=O)NC(C)(C)C(=O)N[C@@H](CC(C)C)C(=O)N[C@@H](CC(=O)O)C(=O)N[C@@H](CCCNC(=N)N)C(=O)NC(C)(C)C(=O)N[C@@H](C)C(=O)N[C@@H](CCC(N)=O)C(=O)NC(C)(C)C(=O)N[C@@H](CCCCNC(=O)COCCOCCNC(=O)CC[C@H](NC(=O)CC[C@H](NC(=O)CC[C@H](NC(=O)CCCCCCCCCCCCCC(=O)O)C(=O)O)C(=O)O)C(=O)O)C(=O)N[C@@H](Cc1ccccc1)C(=O)N[C@H](C(=O)N[C@@H](CC(N)=O)C(=O)N[C@@H](Cc1c[nH]c2ccccc12)C(=O)N[C@@H](CC(C)C)C(=O)N[C@@H](CC(C)C)C(=O)N[C@@H](C)C(=O)N[C@@H](CCC(N)=O)C(=O)N[C@@H](CCCCN)C(N)=O)C(C)C)[C@@H](C)CC

What was measured:
[1] = target: T1, full-length human GIPR with an N-terminal FLAG tag (human, UniProt P48546 22-466); experiment: cell-based or functional assay
T1 sequence (looked up): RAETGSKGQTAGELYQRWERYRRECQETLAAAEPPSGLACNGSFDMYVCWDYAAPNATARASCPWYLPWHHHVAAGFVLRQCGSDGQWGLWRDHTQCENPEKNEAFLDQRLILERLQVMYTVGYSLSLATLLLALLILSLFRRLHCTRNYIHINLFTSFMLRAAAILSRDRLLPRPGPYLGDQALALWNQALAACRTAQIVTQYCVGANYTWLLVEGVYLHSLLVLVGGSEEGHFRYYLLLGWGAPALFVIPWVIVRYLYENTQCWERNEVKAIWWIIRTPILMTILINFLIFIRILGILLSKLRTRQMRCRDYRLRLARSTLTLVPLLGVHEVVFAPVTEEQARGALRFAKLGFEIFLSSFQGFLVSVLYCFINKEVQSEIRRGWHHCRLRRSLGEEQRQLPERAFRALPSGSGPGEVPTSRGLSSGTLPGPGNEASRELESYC

[2] = target: full-length human GLP-1R with an N-terminal FLAG tag (human, UniProt P43220 24-463); experiment: cell-based or functional assay

Row | Binder | Human GIPR cAMP, HEK293T EC50 [1] [nM] | Human GLP1R cAMP HEK293T EC50 [2] [nM]
1 | [NMeY][Aib]EGTFISDYSIALDR[Aib]AQ[Aib]DFVNWLLAK(2OEGgE‑C15DA)RPSSGAPPPS-NH2 [Compound 109] | 0.0005 | 832
2 | B1 | 0.0005 | 41.7
3 | [NMeY][Aib]EGTFISDYSI[Aib]LDR[Aib]AQ[Aib]KFVNWLLAQRGGGGS-NH2 (not fully specified (residue 21)) [Compound 114] | 0.0007 | 115
4 | [NMeY][Aib]EGTFISDYSIALDRIHQ[Aib]NFVNWLLK(2OEGgE‑C16DA)QK [Compound 10] | 0.0006 | 955
5 | B2 | 0.0004 | 12
